# Test results published in paper doi:10.1101/2025.11.24.690153.
# Where two headings read alike, the source gives them in different places.
# T1: GtComGD (Geobacillus thermodenitrificans, UniProt A0ABY9Q9R4 29-145)
# T1 sequence: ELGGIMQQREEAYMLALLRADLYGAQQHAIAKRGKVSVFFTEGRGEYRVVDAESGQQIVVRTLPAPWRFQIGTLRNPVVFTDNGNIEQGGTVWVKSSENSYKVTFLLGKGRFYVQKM
# T2: BsComGC (Bacillus subtilis PY79, UniProt P25955 28-98)
# T2 sequence: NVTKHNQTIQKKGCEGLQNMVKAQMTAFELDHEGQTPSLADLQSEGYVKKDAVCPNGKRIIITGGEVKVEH
# Assays:
# GtComGD [1] = target: T1, GtComGD; test: EMSA
# GtComGD [2] = target: T1, GtComGD; test: BLI
# [3] = target: Geobacillus thermodenitrificans His-MBP-ComGC (Geobacillus thermodenitrificans); test: SEC
# [4] = target: Geobacillus thermodenitrificans His-MBP-ComGC (Geobacillus thermodenitrificans); test: SEC; remark: listed apart in the source
# [5] = target: Geobacillus thermodenitrificans His-MBP-ComGD (Geobacillus thermodenitrificans); test: SEC
# [6] = target: Geobacillus thermodenitrificans His-MBP-ComGD (Geobacillus thermodenitrificans); test: SEC; remark: listed apart in the source
# [7] = target: Geobacillus thermodenitrificans His-MBP-ComGD (Geobacillus thermodenitrificans); test: SEC; remark: listed apart in the source
# BsComGC [8] = target: T2, BsComGC; test: EMSA
# BsComGC [9] = target: T2, BsComGC; test: pull-down
molecule,measurement,setting,value
40 bp dsDNA (EMSA),Kd,GtComGD [1],20 µM
2000 bp dsDNA (BLI),Kd,GtComGD [2],96 µM
Geobacillus thermodenitrificans His-MBP-ComGC (domain or fragment),stoichiometry N,[3],2
same,stoichiometry N,[4],2
Geobacillus thermodenitrificans His-MBP-ComGD (domain or fragment),stoichiometry N,[5],2
same,stoichiometry N,[6],2
same,stoichiometry N,[7],2
"TTTTTTTTTTTTTTTTTTTTTTCCCACAACAAGCCACCCG (ssDNA) [unstructured ssDNA (BLI, Fig. S3A)]",Kd,GtComGD [2],53 µM
"TTTTTTTTTTTTTTTTTTTTTTCCCACAACAAGCCACCCG (ssDNA) [40 nt ssDNA (EMSA, Fig. S3A)]",Kd,BsComGC [8],~100 µM
same,Kd,GtComGD [1],~13.6 µM
AAAAAAAAAAAA (ssDNA) [12 nt polyA ssDNA],binding result,BsComGC [9],binds
